Experimental data taken from the supplement of paper PMC10126150.
± gives the standard deviation of the averaged measurements.

Test system: ATP
Assay: switch fluorescence ratio, 500 uM ATP over buffer (Cy3 cluster intensity, sum of 5 cycles each) (fold (ratio)); higher = stronger signal-on switching upon ATP binding; sequences stand for … in TCGTCGGCAGCGTCAGATGTGTATAAGAGACAGTTTTTTTTTTTTTTTTTTTTTTTTT…TC
Conditions: aptamer strand: ATP DNA aptamer (quencher-CACCTGGGGGAGTATTGCGGAGGAAGG + anchor), 100 nM annealed; ATP concentration: 500 uM
Outline: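 The quencher-labelled ATP aptamer, at 100 nM, was annealed to Cy3-labelled switching-strand clusters on a modified Illumina MiSeq flow-cell. The clusters were imaged in selection buffer, then after 15 min with 500 uM ATP at 22 °C, and this buffer/ATP cycle ran five times with NaOH stripping and re-annealing between runs. Per-cluster fluorescence ratios, summed target-cycle over summed buffer-cycle Cy3 intensity, were averaged per switch-domain sequence. Clusters outside 100-1000 RFU were excluded.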
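Note: ATP exposure 15 min at 22 °C before imaging.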

Sequence	switch fluorescence ratio
TACTCTCCTT	1.09 ± 0.016
GGGCATGTTA	0.9692 ± 0.0032
CGTGGGGGTA	0.996 ± 0.025
AAAATCGTCT	1.08 ± 0.086
GAGCTAACGG	1.011 ± 0.0073
AATCATGGT	0.978 ± 0.019
ATACGCAGGG	1.06 ± 0.061
CTAGTTGGAT	0.9908 ± 0.0053
AGGCACGACG	0.9561 ± 0.0074
GCTGCTGTAT	1.01 ± 0.022
AGTGCAGGGA	0.9894 ± 0.0077
GAGGTAGCGC	0.98 ± 0.01
AGGCTTGGTG	0.988 ± 0.012
TTAAAATAGA	1.07 ± 0.1
ATTGAAGCCT	1.15 ± 0.013
GGGTAACTGG	1 ± 0.027
AGGTGAGGGC	1.02 ± 0.015
CGCGTTGGGG	1.03 ± 0.044
CTTACAGTTT	1 ± 0.011
CTAGGGAAAG	0.989 ± 0.057
AACTGGAGGG	0.969 ± 0.042
TTTGTTATTT	1.01 ± 0.023
GATGTTCGAG	0.991 ± 0.011
GAGATATATG	0.983 ± 0.052
TTCAAATGGA	0.991 ± 0.041
CTGGCAGAAA	1.02 ± 0.043

Sequence	switch fluorescence ratio
GCAGGCTTGG	1.012 ± 0.0061
TTGATCCGCT	1.74 ± 0.47
ATCATCTGAC	1.095 ± 0.0095
TCGATGGCAG	1.059 ± 0.0033
CATTAGCGCA	1.047 ± 0.0084
CTGGTACGGA	1.0245 ± 0.00032
AATTCTGAGA	1.02 ± 0.048
ATTTTGTTTT	1.01 ± 0.061
CATAAGGCAA	1.282 ± 0.0088
TACGATGTGG	1.007 ± 0.0088
TTTTGAAATT	1 ± 0.046
TGGTGGAATT	1.02 ± 0.034
TGGGGCGTGC	1.06 ± 0.065
CCGCCGGGGT	1.91 ± 0.31
AAAAATCTCT	1.02 ± 0.033
TAGTATTCTG	0.986 ± 0.021
CGCTTGGGGT	0.9626 ± 0.0092
AGGGGCCAGT	0.98 ± 0.019
TGCAATAGGG	1.35 ± 0.12
GTGGTGTGGT	0.982 ± 0.011
AAAAACGTCT	1.1 ± 0.016
ATTTGACTTC	1.12 ± 0.19
GGGAGTATAG	0.9907 ± 0.0089
ATGAAGCATG	1.08 ± 0.04
ATAATCGGTG	0.981 ± 0.041
CCCGTGTGAG	0.983 ± 0.045

Sequence	switch fluorescence ratio
TACTTTGCTG	1.02 ± 0.066
TAGGCGGAGC	1.033 ± 0.0063
TTGTTAGCCT	1.05 ± 0.019
CTGGTTTTGT	1.04 ± 0.014
AGTAAGGTTT	0.985 ± 0.04
AGTAGGAATT	0.99 ± 0.038
CTCTGAAATC	2.997 ± 0.01
GATACGTGGG	0.9702 ± 0.0065
GGTAACACCA	1.015 ± 0.0095
GTTTTATTTG	1.01 ± 0.025
ATTGGACATC	1.11 ± 0.11
GCTCCCGGGG	1.24 ± 0.12
GTTATATATG	1.015 ± 0.0029
ATGTTTTTTG	0.982 ± 0.023
GACTGGGGAC	1.01 ± 0.012
TATCAACTTG	1.02 ± 0.037
GCTTCTGGAA	1.06 ± 0.018
AATCGCGTTT	1.017 ± 0.0012
AGTTTGGCAC	1.05 ± 0.057
TGGTTATTAC	1.037 ± 0.0094
AGGTTATTA	0.9856 ± 0.0031
AACTGTTGGG	0.9928 ± 0.002
TGCAAAAAAT	1.02 ± 0.011
GGGAAGTCTG	0.955 ± 0.024
TAGTTTTATG	0.959 ± 0.015
ATAAGGGAGG	0.979 ± 0.022

Sequence	switch fluorescence ratio
TAGGCTAGGT	1.017 ± 0.0047
GCTCAGTAGT	1.03 ± 0.027
TGTAAAAGGA	1.01 ± 0.021
GAGCTAAGCT	0.981 ± 0.018
AGTCTGGGGG	0.959 ± 0.011
CACTTGACGT	1.21 ± 0.034
GAAACGGGGG	1.013 ± 0.009
AGGGTGGGCT	0.996 ± 0.012
CCCTGGACGG	0.9883 ± 0.0053
ACCCGGGCAG	1.049 ± 0.0047
AACGGAGCTT	1.47 ± 0.25
GGGGGTGACA	0.9931 ± 0.0073
TGGTTGAAAA	0.875 ± 0.033
CGATTCACTT	1.02 ± 0.021
TTAGCGCTGG	1.01 ± 0.015
TGATATTTTG	1 ± 0.016
TTCGCGAGGT	2.67 ± 2.3
GACGGTTGAG	1.025 ± 0.0057
TAAAATGCAT	0.979 ± 0.024
AGTTTAATTA	0.971 ± 0.051
TAGTTGGTCG	1.02 ± 0.049
AAGTCAGGAG	1.05 ± 0.07
CGTATTTTAC	1.08 ± 0.038
GCGTGTGGGG	1.02 ± 0.021
CACTTCTGAA	0.987 ± 0.017
TTTTTCGGGG	1.02 ± 0.032

Sequence	switch fluorescence ratio
CCATTTCTGA	1.03 ± 0.015
GGGTGATCGG	0.984 ± 0.023
GGGGGCGGGA	1.02 ± 0.059
GGTGAGGATG	0.994 ± 0.018
ATTGAGGCTC	0.985 ± 0.012
AGGGCAGTGG	0.9796 ± 0.0025
CACGGGGGTG	0.987 ± 0.03
CGGGAAGGAG	0.9685 ± 0.0053
GGGGGGGGA	1.05 ± 0.026
AGCAGAGTGC	1.02 ± 0.055
GCCCGCCCGC	1.38 ± 0.18
CGTACAAAAG	0.998 ± 0.03
TCGTTGGGGT	0.987 ± 0.029
GGTAATAAGG	1.05 ± 0.028
GAGTTTTTTG	1.03 ± 0.039
AGGCTTGTGT	0.99 ± 0.077
CATAGTATTA	0.958 ± 0.04
GTTGTTCAAA	0.989 ± 0.015
ACTGCGAATA	1.41 ± 0.021
GCGAGCCTCC	1.3 ± 0.052
GCAGGTGAGG	1.18 ± 0.044
GGTAGCGAAG	0.97 ± 0.026
TGGGGGACGG	1 ± 0.035
GAACACTTAT	1.04 ± 0.044
TTTAAAGACC	0.993 ± 0.022
ATATACATGT	1.02 ± 0.038

Sequence	switch fluorescence ratio
TTTTGGAGGT	1.01 ± 0.013
GAGATCTAGT	1.01 ± 0.019
GGAATAGGCT	0.967 ± 0.059
GTTTTCAGGT	0.992 ± 0.037
AGGGTCTTGA	1.007 ± 0.0017
TATGGGGGTC	1.02 ± 0.015
AAGCATAGGA	1.02 ± 0.02
AGTGATTCGT	1.01 ± 0.038
TTTTCCCCGT	1.38 ± 0.56
TTTGCAATTG	1.13 ± 0.062
TGCTGGAAGT	0.977 ± 0.032
AAGATGTAGG	1.025 ± 0.0086
CGACTGGGAG	0.981 ± 0.026
GGGGCCGTTT	0.973 ± 0.03
GCATTAGGGT	1.02 ± 0.014
TTGGTGTGTG	0.958 ± 0.022
TTTGTTTCT	0.968 ± 0.01
TATTGTGTGT	0.987 ± 0.022
TTCCTTGGGA	0.984 ± 0.014
TGGTATGGTT	0.996 ± 0.011
GAGGGCTAGG	0.997 ± 0.023
ATGGCTACCG	1.01 ± 0.033
TAATTCGGCA	0.995 ± 0.0044
